Assay results from the supplement of paper PMC10567573.

B1: LARP4 (parent)
chain: WTVANMEEIKKLTTDPDLILEVLR
B2: ZNF649 (parent)
chain: YQAGKPDALTKLEQGEPLWTLEDE

Variants of: B1
Assay: protein stability index of a GFP-peptide fusion (GPS, HEK-293T) (PSI 1-6); higher = more stable
Settings: c terminus: a fixed tail appended
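Further: lentivirally expressed fusions sorted by FACS into six bins by GFP to DsRed ratio, PSI derived from sequencing read proportions per bin multiplied by bin number.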

Protein stability index of substitutions, site by site:
L23: K 3.28, P 2.89, T 3.08, D 4.03, R 2.47, V 2.85, W 2.96, E 2.96, H 2.61
L18: D 2.77, T 2.26, P 2.33, Y 3.46, Q 3.13
E7: K 1.88, T 1.91, S 1.7, A 1.9, Q 2.28
I19: L 2.12, S 3.09, A 2.49, D 3.77, H 2.82, M 2.73, E 3.4, C 1.96, V 1.59, Q 3.12
D17: R 1.86, C 1.44, V 1.98, Q 2.32, T 1.77, Y 1.53, F 1.77, H 1.88
L20: N 3.24, W 2.01, D 3.74, T 2.52, Y 2.17, I 2.1, V 2.19, K 3.53
N5: D 2.79, C 2.04, V 1.85, Q 2.39, S 1.66, A 1.29, E 2.47, R 1.16, L 2.55, H 1.99, Y 2.38
I9: L 2.16, A 2.38, H 2.65, Y 2.31, G 2.43, W 2.21, E 2.75, K 2.5
K10: L 2.68, G 1.99, E 2.51, H 1.84, R 2.52, F 1.93, M 2.56, A 2.12
K11: A 1.7, G 2.22, C 2.33, E 3.99, H 3.42, T 2.95, Y 3.77, V 2.29
V22: D 3.77, Y 2.64, A 2.79, E 3.59, K 3.3
T13: V 2.94, C 1.88, F 1.82, A 2.24, N 1.92, Y 1.86, K 2.02, E 2.24, S 1.39, W 1.83, L 2.14
E8: V 1.4, R 2.37, N 2.03, G 1.56, C 2.25, H 2.89, I 1.72, D 2.03, L 3.14, T 1.7
T2: S 2.58, M 1.48, H 2.67, Q 1.95, C 2.02, W 2.11, A 1.42, N 2, D 2.12
T14: D 2.46, F 1.39, G 2.01, A 2.08, S 1.91, Y 1.65, L 1.99, K 2.21, H 3.88, V 1.05, M 2.54, I 2.08
V3: H 2.5, K 2.19, Y 1.96, S 2.21, M 2.29, T 2.18, N 2.24, L 2.41, D 3.05, E 3.01, C 2.5
E21: N 2.32, G 2.21, L 1.48, Q 1.6, V 1.86, M 2.08, W 2.1, T 1.9, S 1.66, R 1.92, C 1.69
R24: D 2, N 2.48, K 1.82, W 2.31, P 2.37, V 1.83, T 2.5, F 1.74
M6: N 2.67, S 2.57, W 1.89, I 1.63, R 2.47, L 2.13, C 2.6, D 2.79, H 1.79
D15: C 1.53, P 1.97, A 1.69, M 2.26, H 2.21, N 2.14, G 2.05, Y 1.38, S 1.53, I 1.18
L12: Q 3.09, F 2.97, M 2.06, V 2.9, I 2.23, K 2.62, W 2.46
A4: P 2.05, G 2.06, T 1.97, F 1.69, Q 2.61, N 2.59, C 1.92
W1: G 2.63, D 3.04, C 1.88, K 2.26, S 2.33
P16: R 2.25, F 1.63, K 1.59, M 2.11, V 1.2, Y 1.91, Q 1.84

Variants of: B2
Assay: as above
Settings: c terminus: a fixed tail appended

Protein stability index of substitutions, site by site:
G4: T 3.97, H 4.58, Q 4.08, A 4.68, N 4.92, C 4.47, R 3.53, Y 3.59, E 4.38, S 4.4, I 4.22, F 4.8, K 4.18, P 4.63, D 5.05, L 4.17
Y1: I 5.01, C 5.06, L 4.51, Q 5.46, W 4.7, N 5.22, T 5.57, A 4.88, R 5.16, F 3.39, P 4.5, K 5.51, M 4.75, S 5.54, D 5.21, H 5.25, G 4.71
A3: N 4.71, C 3.83, T 4.54, Y 4.25, W 2.2, E 4.65, R 3.66, H 4.14, F 3.64, V 4.42, L 4.26, P 4.36, M 4.1, Q 4.75, K 4.75, I 4.51
K5: V 3.03, M 4.38, F 2.76, L 4.05, P 5, I 4.02, Y 2.6, R 3.31, E 4.59, N 4.84, D 4.01, T 4.6, A 4.48, C 4.72, S 4.48
D7: L 3.15, H 4.18, Q 3.58, F 2.49, N 3.26, E 4.77, V 3.28, Y 2.06, T 3.59, S 3.99, P 4.16, R 3.65, K 3.66, A 3.4, I 2.61, C 2.37
A8: N 4.49, Q 4.41, G 4.87, I 4.08, P 4.27, C 3.61, K 4.85, T 3.95, F 2.91, M 3.83, D 4.94, H 4.04, L 3.56, R 4.65, E 5.31, S 4.46
Q2: H 3.08, M 4.63, T 5.05, V 2.53, R 5.15, G 4.38, D 5.48, N 4.22, Y 3.56, C 3.87, P 4.8, I 3.29, S 4.99, F 4.6, A 3.68, E 5.66, L 3.1, K 4.58
P6: L 3.79, Y 3.91, E 5.46, D 3.77, S 4.19, K 4.29, A 3.88, Q 4.15, H 3.93, M 3.85, T 4.64, I 4.32, V 4.42, C 4.17, W 2.99, F 3.31, G 4.99, N 4.15
